Series [1] has as its target AbMV movement protein (MP; BC1) (UniProt P21946). The series can be described thus: acceptor photobleaching FRET, tag layout NC. The conditions noted are these: sites T221,S223,S250.
Series [2] concerns the molecule itself. The series can be described thus: FRET or BRET; acceptor photobleaching FRET in living N. benthamiana leaf epidermal cells, 3 dpai; acceptor mVenus, donor mTurquoise2; four layouts (NN, NC, CN, CC); without and with local AbMV (DNA-A + DNA-BΔMP) infection; ROIs along the plasma membrane; p19 co-infiltrated.

“Also recorded” adds a separate entry of the source.

On to “AbMV movement protein (MP; BC1) (from UniProt P21946) MPAAA with MPAAA”, for which the “other: mean FRET efficiency” value in series [1] (reference: MPWT with MPWT) is “stronger; reference 36; also recorded: stronger; reference 28”.

Turning to “AbMV movement protein (MP; BC1) (from UniProt P21946) MPDDD with MPDDD”, the “other: mean FRET efficiency” value is given as “weaker; reference 50; also recorded: weaker; reference 42” in series [1] (reference: MPAAA with MPAAA) and “same; reference 28” in series [1] (reference: MPWT with MPWT).

B1: AbMV movement protein, full-length, T221A/S223A/S250A (MP^AAA), fused to mVenus or mTurquoise2 (natural protein, Abutilon mosaic virus, UniProt P21946 1-293, looked up)
chain: MDSQLVNPPNAFNYIESHRDEYQLSHDLTEIILQFPSTAAQLTARLSRSCMKIDHCVIEYRQQVPINATGSVIVEIHDKRMTDNESLQASWTFPIRCNIDLHYFSASFFSLKDPIPWKLYYKVCDTNVHQRTHFAKFKGKLKLSTAKHSVDIPFRAPTVRILSKQFSEKDVDFSHVDYGKWERKPIRCASMSRIGLRGPIEIRPGESWASRSTIGTAQPDADAEMENELHPYRHLNRLGTSLLDPGESAAIVGDQRAEPNITMSMGQLNELVRTAVQECVNSNCQASQAKSLK
notes: Movement protein (MP; BC1) of Abutilon mosaic virus, full-length; Two copies expressed from one T-DNA (pFRETtv-2-in-1), one with mVenus and one with mTurquoise2, in four layouts (NN, NC, CN, CC); each copy carries one fluorescent protein at one end; also called mVenus::MP^AAA; MP^AAA::mVenus; source: N. benthamiana leaf epidermis, transiently expressed after agro-infiltration, in living cells; …
Consider B1, for which, in series [2], the “mean FRET efficiency (layout NC, with AbMV)” value worked out at 42% and the “mean FRET efficiency (layout NC, without AbMV)” value is 50%.

B2: AbMV movement protein, full-length, wild type (MP^WT), fused to mVenus or mTurquoise2 (natural protein)
chain: MDSQLVNPPNAFNYIESHRDEYQLSHDLTEIILQFPSTAAQLTARLSRSCMKIDHCVIEYRQQVPINATGSVIVEIHDKRMTDNESLQASWTFPIRCNIDLHYFSASFFSLKDPIPWKLYYKVCDTNVHQRTHFAKFKGKLKLSTAKHSVDIPFRAPTVRILSKQFSEKDVDFSHVDYGKWERKPIRCASMSRIGLRGPIEIRPGESWASRSTIGTAQPDTDSEMENELHPYRHLNRLGTSLLDPGESASIVGDQRAEPNITMSMGQLNELVRTAVQECVNSNCQASQAKSLK
notes: Movement protein (MP; BC1) of Abutilon mosaic virus, full-length; Two copies expressed from one T-DNA (pFRETtv-2-in-1), one with mVenus and one with mTurquoise2, in four layouts (NN, NC, CN, CC); each copy carries one fluorescent protein at one end; also called BC1; mVenus::MP^WT; source: N. benthamiana leaf epidermis, transiently expressed after agro-infiltration, in living cells; not shown: …
Consider B2, for which, in series [2], the “mean FRET efficiency (layout NC, with AbMV)” value came to 28% and the “mean FRET efficiency (layout NC, without AbMV)” value was 36%.

B3: AbMV movement protein, full-length, T221D/S223D/S250D (MP^DDD), fused to mVenus or mTurquoise2 (natural protein, Abutilon mosaic virus, UniProt P21946 1-293, looked up)
chain: MDSQLVNPPNAFNYIESHRDEYQLSHDLTEIILQFPSTAAQLTARLSRSCMKIDHCVIEYRQQVPINATGSVIVEIHDKRMTDNESLQASWTFPIRCNIDLHYFSASFFSLKDPIPWKLYYKVCDTNVHQRTHFAKFKGKLKLSTAKHSVDIPFRAPTVRILSKQFSEKDVDFSHVDYGKWERKPIRCASMSRIGLRGPIEIRPGESWASRSTIGTAQPDDDDEMENELHPYRHLNRLGTSLLDPGESADIVGDQRAEPNITMSMGQLNELVRTAVQECVNSNCQASQAKSLK
notes: Movement protein (MP; BC1) of Abutilon mosaic virus, full-length; Two copies expressed from one T-DNA (pFRETtv-2-in-1), one with mVenus and one with mTurquoise2, in four layouts (NN, NC, CN, CC); each copy carries one fluorescent protein at one end; also called mVenus::MP^DDD; MP^DDD::mVenus; source: N. benthamiana leaf epidermis, transiently expressed after agro-infiltration, in living cells; …
Consider B3, for which, in series [2], the “mean FRET efficiency (layout NC, with AbMV)” value was determined as 30% and the “mean FRET efficiency (layout NC, without AbMV)” value was 14%.

The values above are taken from paper PMC7411133, “Phosphorylations of the Abutilon Mosaic Virus Movement Protein Affect Its Self-Interaction, Symptom Development, Viral DNA Accumulation, and Host Range” (Frontiers in Plant Science, 2020).
